Laboratory results taken from doi:10.1101/2024.08.15.608188, “Myosin forces elicit an F-actin structural landscape that mediates mechanosensitive protein recognition” (bioRxiv, 2024).

Molecular target: the molecule itself
Assay: cryo-EM structure; dual motor condition (surface-anchored myosin-5 and myosin-6, 1 μM ATP) on holey carbon grids; 0.6 μM F-actin, 1 μM α-catenin ABD applied in Motility Buffer (20 mM MOPS pH 7.4, 5 mM MgCl2, 0.1 mM EGTA, 1 mM DTT) for 30 s, 25 °C; sub-saturating α-catenin; consensus and 3DVA-sorted reconstructions

B1: C-terminal actin-binding domain (ABD) of human α-catenin (AA 664-906) (domain or fragment, UniProt P35221 664-906, looked up)
chain: IAGQSARAIMAQLPQEQKAKIAEQVASFQEEKSKLDAEVSKWDDSGNDIIVLAKQMCMIMMEMTDFTRGKGPLKNTSDVISAAKKIAEAGSRMDKLGRTIADHCPDSACKQDLLAYLQRIALYCHQLNICSKVKAEVQNLGGELVVSGVDSAMSLIQAAKNLMNAVVQTVKASYVASTKYQKSQGMASLNLPAVSWKMKAPEKKPLVKREKQDETQTKIKRASQKKHVNPVQALSEFKAMDSI
notes: Tags were removed with TEV protease; also called α-catenin ABD; αE-catenin ABD; source: E. coli Rosetta2(DE3), purified (Ni-NTA, TEV cleavage, anion exchange, size exclusion); not shown: 6XHis, N-terminal, cleaved; strep tag, N-terminal, cleaved
binding result: binds
